This assay has as its target GST-TRAF6 (mouse) (UniProt P70196). Put plainly: SPR. (Surface plasmon resonance follows binding to a sensor surface in real time, without labels.)
Sequence of UniProt P70196 (P70196 whole entry): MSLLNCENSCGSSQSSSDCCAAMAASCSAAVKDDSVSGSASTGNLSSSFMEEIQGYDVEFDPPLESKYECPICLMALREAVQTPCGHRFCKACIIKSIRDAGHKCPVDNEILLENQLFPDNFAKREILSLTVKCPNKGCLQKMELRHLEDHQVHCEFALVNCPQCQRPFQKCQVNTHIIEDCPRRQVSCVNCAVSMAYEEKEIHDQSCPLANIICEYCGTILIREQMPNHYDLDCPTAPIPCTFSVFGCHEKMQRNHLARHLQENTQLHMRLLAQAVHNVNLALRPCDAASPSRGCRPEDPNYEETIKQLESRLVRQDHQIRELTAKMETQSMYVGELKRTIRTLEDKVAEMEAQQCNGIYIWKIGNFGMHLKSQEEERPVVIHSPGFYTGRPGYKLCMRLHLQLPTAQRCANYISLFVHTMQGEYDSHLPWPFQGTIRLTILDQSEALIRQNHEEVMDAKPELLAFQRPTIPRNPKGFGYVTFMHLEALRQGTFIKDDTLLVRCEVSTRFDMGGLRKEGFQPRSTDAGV

For “neuroplastin intracellular peptide containing the TRAF6 binding motif”, the dissociation constant (Kd) (usually the concentration at which binding is half-saturated) is 88 µM and the stoichiometry N (commonly the number of molecules, sites or subunits per partner or assembly) stood at 1.

These data come from doi:10.1101/768341.
